Experimental data: paper doi:10.1101/2025.10.06.680090

Molecular target: HAdV-C5 capsid (replication-defective, E1-deleted vector HAdV-C5-GFP) (human adenovirus type C5)
Assay: SPR

Question: “recombinant human langerin protein (hCD207) (from UniProt Q9UJ71 1-328) (receptor)” was tested. Which Kd did it give?
Answer: 39 nM
